Measurements from article PMC3693442 (Science (New York, N.Y.), 2013).

Target: KLC2^TPR (tetratricopeptide repeat domain of kinesin light chain 2), wild type (UniProt O88448 217-426)
Test: fluorescence polarisation

Kd	Binder
> 110 µM	PSTDWEDGDL [SKIP^WE peptide (equivalent peptide centered on the WE motif of SKIP)]
24 µM	TNLEWDDSAI [SKIP^WD peptide (ten amino acid long peptide centered on the WD motif of SKIP)]
